The record followed here is article PMC10712694 (International Journal of Molecular Medicine, 2023).

In experiment [1] the target is T1, RANK extracellular (ligand-binding) domain, Q30 to P213, His-tagged (UniProt O35305 30-213).
T1 sequence (looked up): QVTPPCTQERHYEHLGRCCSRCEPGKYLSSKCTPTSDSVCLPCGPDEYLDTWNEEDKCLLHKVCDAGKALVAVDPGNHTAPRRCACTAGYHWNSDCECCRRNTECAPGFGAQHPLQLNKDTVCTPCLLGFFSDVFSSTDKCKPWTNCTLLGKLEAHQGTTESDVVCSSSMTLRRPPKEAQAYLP
The experiment can be described thus: MST.

Experiment [2] has as its target T2, LGR4 extracellular (ligand-binding) domain, L62 to V464, His-tagged (UniProt A2ARI4 62-464).
T2 sequence (looked up): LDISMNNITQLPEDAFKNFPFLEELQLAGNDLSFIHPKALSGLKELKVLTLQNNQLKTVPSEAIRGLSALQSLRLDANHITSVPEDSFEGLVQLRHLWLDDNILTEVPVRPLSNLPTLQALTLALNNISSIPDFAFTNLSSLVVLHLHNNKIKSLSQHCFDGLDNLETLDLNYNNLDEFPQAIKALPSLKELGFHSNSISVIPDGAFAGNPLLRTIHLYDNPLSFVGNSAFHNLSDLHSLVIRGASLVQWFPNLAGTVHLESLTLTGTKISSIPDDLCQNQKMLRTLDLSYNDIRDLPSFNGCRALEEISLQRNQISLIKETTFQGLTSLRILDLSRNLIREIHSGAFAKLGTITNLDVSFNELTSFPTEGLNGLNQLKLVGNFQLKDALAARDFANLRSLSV
Put plainly: MST.

B1: wild-type RANKL (receptor activator of nuclear factor-κB ligand) (ligand, UniProt O35235 139-316, looked up)
chain: FSGAPAMMEGSWLDVAQRGKPEAQPFAHLTINAASIPSGSHKVTLSSWYHDRGWAKISNMTLSNGKLRVNQDGFYYLYANICFRHHETSGSVPTDYLQLMVYVVKTSIKIPSSHNLMKGGSTKNWSGNSEFHFYSINVGGFFKLRAGEEISIQVSNPSLLDPDQDATYFGAFKVQDID
Take B1: the results for the Kd in experiment [1] and in experiment [2] were 33.3 nM and 409 nM, respectively.

What is called Kd is the free concentration of one partner at which half of the binding sites on the other are occupied at equilibrium, for simple one-to-one binding. Read a high Kd as a looser complex.
